Measured values as given in patent US20110143953A1.

Assays:
transferrin, P02787 [1] = test: SPR, transferrin immobilized, Kd from kinetics
transferrin, P02787 [2] = test: SPR
[3] = target: AKT1 (as used in SPR), P31749; test: SPR
AKT1 (as used in SPR), P31749, sequence (P31749 whole entry): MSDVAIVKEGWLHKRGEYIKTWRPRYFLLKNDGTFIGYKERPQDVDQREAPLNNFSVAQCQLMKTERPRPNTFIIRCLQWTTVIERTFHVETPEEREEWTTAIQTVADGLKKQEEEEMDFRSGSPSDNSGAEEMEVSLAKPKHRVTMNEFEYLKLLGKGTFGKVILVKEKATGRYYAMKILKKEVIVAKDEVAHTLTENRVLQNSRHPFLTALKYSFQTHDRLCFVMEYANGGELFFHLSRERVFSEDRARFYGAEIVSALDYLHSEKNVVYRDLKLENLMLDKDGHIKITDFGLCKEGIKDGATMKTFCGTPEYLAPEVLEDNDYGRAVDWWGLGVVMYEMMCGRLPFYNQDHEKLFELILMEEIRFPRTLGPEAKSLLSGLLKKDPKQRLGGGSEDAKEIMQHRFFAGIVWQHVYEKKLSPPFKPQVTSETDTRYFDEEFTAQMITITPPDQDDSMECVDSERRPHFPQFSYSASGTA

transferrin, P02787, sequence (P02787 20-698 limits assumed): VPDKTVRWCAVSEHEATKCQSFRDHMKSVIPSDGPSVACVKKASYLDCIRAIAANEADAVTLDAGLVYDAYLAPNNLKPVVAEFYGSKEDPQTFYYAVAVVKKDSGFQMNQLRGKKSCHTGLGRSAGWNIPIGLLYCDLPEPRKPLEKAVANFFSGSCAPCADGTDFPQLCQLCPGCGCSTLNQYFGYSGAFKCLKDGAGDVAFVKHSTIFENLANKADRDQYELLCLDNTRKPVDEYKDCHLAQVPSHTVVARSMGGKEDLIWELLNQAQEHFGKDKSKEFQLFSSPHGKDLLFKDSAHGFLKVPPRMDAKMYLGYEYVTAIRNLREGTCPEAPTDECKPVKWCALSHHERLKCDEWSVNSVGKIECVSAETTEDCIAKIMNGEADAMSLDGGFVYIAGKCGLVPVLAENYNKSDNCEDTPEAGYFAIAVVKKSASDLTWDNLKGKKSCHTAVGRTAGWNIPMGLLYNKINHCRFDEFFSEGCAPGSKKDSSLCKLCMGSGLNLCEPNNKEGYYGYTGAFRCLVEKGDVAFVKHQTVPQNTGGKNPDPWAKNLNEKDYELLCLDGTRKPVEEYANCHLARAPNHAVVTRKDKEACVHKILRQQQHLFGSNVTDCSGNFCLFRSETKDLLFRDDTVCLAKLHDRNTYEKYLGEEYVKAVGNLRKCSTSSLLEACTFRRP

B1: SYN23-26 (designed binder)
peptide 1: FRGWAHIFFGPHVIYRGGSG
peptide 2: AHKVVPQRQIRHAYNRYGSG
modifications: not fully specified; C-terminal glycine joined to one of the two amines (alpha or epsilon) of a lysine linker; chain 1 pos 20 and chain 2 pos 20: the C-terminal Gly of each 20-mer is joined to the alpha or the epsilon amine of one branching lysine (about 1 nm spacing). The lysine is followed by a C-terminal cysteine whose thiol is biotinylated for the array. The Lys-Cys core is left out of the …
Kd (transferrin, P02787 [1]): 150 nM
Kd (transferrin, P02787 [2]): 141 nM
Kd [3]: 1 nM
